Results published in patent US20130236458A1 (AbbVie / Abbott, published 2013).
Residue numbers refer to the chain shown, from its start. Values belong to the binder of their own block, whether it stands above or below them.

Assays:
Recombinant Human IL-13 [1] = target: T1, Recombinant Human IL-13 (human, UniProt P35225 35-146, limits assumed); assay: cell-based or functional assay
Recombinant Human IL-17 [2] = target: T2, Recombinant Human IL-17 (human, UniProt Q16552 20-155, limits assumed); assay: cell-based or functional assay
T2 sequence (looked up): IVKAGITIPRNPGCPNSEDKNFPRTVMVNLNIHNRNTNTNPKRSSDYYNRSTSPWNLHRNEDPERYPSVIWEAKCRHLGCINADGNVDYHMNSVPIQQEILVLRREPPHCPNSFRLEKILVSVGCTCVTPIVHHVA

Recombinant Human IL-13 [3] = target: T1, Recombinant Human IL-13; assay: SPR (Biacore)
Method: (§1) The BIACORE assay (Biacore, Inc, Piscataway, N.J.) determined the affinity of antibodies or DVD-Ig with kinetic measurements of on-rate and off-rate constants. Binding of antibodies or DVD-Ig proteins to a target antigen (for example, a purified recombinant target antigen) was determined by surface plasmon resonance-based measurements with a Biacore®1000 or 3000 instrument (Biacore® AB, Uppsala, Sweden) using running HBS-EP (10 mM HEPES [pH 7.4], 150 mM NaCl, 3 mM EDTA, and 0.005% surfactant P20) at 25° C. All chemicals were obtained from Biacore® AB (Uppsala, Sweden) or otherwise from a different source as described in the text. For example, approximately 5000 RU of goat anti-mouse IgG, (Fcγ), fragment specific polyclonal antibody (Pierce Biotechnology Inc, Rockford, Ill.) diluted in 10 mM sodium acetate (pH 4.5) was directly immobilized across a CM5 research grade biosensor chip using a standard amine coupling kit according to manufacturer's instructions and procedures at 25 μg/ml. Unreacted moieties on the biosensor surface were blocked with ethanolamine. Modified carboxymethyl dextran surface in flowcell 2 and 4 was used as a reaction surface. Unmodified carboxymethyl dextran without goat anti-mouse IgG in flow cell 1 and 3 was used as the reference surface. For kinetic analysis, rate equations derived from the 1:1 Langmuir binding model were fitted simultaneously to association and dissociation phases of all eight injections (using global fit analysis) with the use of Biaevaluation 4.0.1 software. Purified antibodies or DVD-Ig proteins were diluted in HEPES-buffered saline for capture across goat anti-mouse IgG specific reaction surfaces. Antibodies or DVD-Ig proteins to be captured as a ligand (25 μg/ml) were injected over reaction matrices at a flow rate of 5 μl/minute. The association and dissociation rate constants, kₒₙ (M⁻¹s⁻¹) and koff (s⁻¹) were determined under a continuous flow rate of 25 μl/minute. Rate constants were derived by making kinetic binding measurements at different antigen concentrations ranging from 10-200 nM. The equilibrium dissociation constant (M) of the reaction between antibodies or DVD-Ig proteins and the target antigen was then calculated from the kinetic rate constants by the following formula: KD=koff/kₒₙ. Binding was recorded as a function of time and kinetic rate constants were calculated.

Recombinant Human IL-17 [4] = target: T2, Recombinant Human IL-17; assay: SPR (Biacore)
Method: as §1

T1 sequence (P35225 35-146 limits assumed): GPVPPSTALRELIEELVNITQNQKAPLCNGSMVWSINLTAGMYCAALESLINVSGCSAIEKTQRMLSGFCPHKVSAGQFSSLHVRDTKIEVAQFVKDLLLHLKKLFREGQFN

N-Terminal VD IL13 Neutralization Assay IC50 (Recombinant Human IL-13 [1]): 0.43 nM
C-Terminal VD IL17 Neutralization Assay IC50 (Recombinant Human IL-17 [2]): 0.351 nM
B1: DVD2154 (bispecific antibody)
VH: EVTLRESGPGLVKPTQTLTLTCTLYGFSLSTSDMGVDWIRQPPGKGLEWLAHIWWDDVKRYNPALKSRLTISKDTSKNQVVLKLTSVDPVDTATYYCARTVSSGYIYYAMDYWGQGTLVTVSSASTKGPEVQLVQSGAEVKKPGSSVKVSCKASGGSFGGYGIGWVRQAPGQGLEWMGGITPFFGFADYAQKFQGRVTITADESTTTAYMELSGLTSDDTAVYYCARDPNEFWNGYYSTHDFDSWGQGTTVTVSS
VL: DIQMTQSPSSLSASVGDRVTISCRASQDIRNYLNWYQQKPGKAPKLLIFYTSKLHSGVPSRFSGSGSGTDYTLTISSLQPEDIATYYCQQGLTPPLTFGGGTKVEIKRTVAAPEIVLTQSPDFQSVTPKEKVTITCRASQDIGSELHWYQQKPDQPPKLLIKYASHSTSGVPSRFSGSGSGTDFTLTINGLEAEDAGTYYCHQTDSLPYTFGPGTKVDIKR

N-Terminal VD IL13 Neutralization Assay IC50 (Recombinant Human IL-13 [1]): 0.129 nM
C-Terminal VD IL17 Neutralization Assay IC50 (Recombinant Human IL-17 [2]): 0.0155 nM
B2: DVD2156 (bispecific antibody)
VH: B1 VH
VL: DIQMTQSPSSLSASVGDRVTISCRASQDIRNYLNWYQQKPGKAPKLLIFYTSKLHSGVPSRFSGSGSGTDYTLTISSLQPEDIATYYCQQGLTPPLTFGGGTKVEIKRTVAAPSVFIFPPEIVLTQSPDFQSVTPKEKVTITCRASQDIGSELHWYQQKPDQPPKLLIKYASHSTSGVPSRFSGSGSGTDFTLTINGLEAEDAGTYYCHQTDSLPYTFGPGTKVDIKR

N-Terminal VD IL13 Neutralization Assay IC50 (Recombinant Human IL-13 [1]): 0.178 nM
C-Terminal VD IL17 Neutralization Assay IC50 (Recombinant Human IL-17 [2]): 0.703 nM
B3: DVD2160 (bispecific antibody)
VH: EVTLRESGPGLVKPTQTLTLTCTLYGFSLSTSDMGVDWIRQPPGKGLEWLAHIWWDDVKRYNPALKSRLTISKDTSKNQVVLKLTSVDPVDTATYYCARTVSSGYIYYAMDYWGQGTLVTVSSASTKGPEVQLVQSGAEVKKPGESVKISCKASGGSFRSYGISWVRQAPGQGLEWMGGITHFFGITDYAQKFQGRVTITADESTTTAYMELSGLTSDDTAVYYCAREPNDFWNGYYDTHDFDSWGQGTTVTVSS
VL: B1 VL with D141N, P156S, T168I, G197A, T204S, S206T, Y209H, P213Q

Kd (Recombinant Human IL-13 [3]): 0.019 nM
koff (Recombinant Human IL-13 [3]): 6.4e-05 s⁻¹
kon (Recombinant Human IL-13 [3]): 3.4e+06 M⁻¹ s⁻¹
IL13 Neutralization Assay IC50 (TARC, A549 cells) (Recombinant Human IL-13 [1]): 0.043 nM
B4: AB399 (antibody, V domains shown)
VH: EVQLVQSGAEVKKPGASVKVSCKASGYTFTSYWMHWVRQAPGQGLEWIGNINPKGGSNIYNEKFQGRVTMTRDTSISTAYMELSRLRSDDTAVYYCARLDYFGDSFDLWGQGTTVTVSS
VL: DIQMTQSPSSLSASVGDRVTITCRASQGIRNYLNWYQQKPGKAPKLLIYYASNLEVGVPSRFSGSGSGTDYTLTISSLQPEDFATYYCQQDNRFPYTFGGGTKVEIKR
notes: parent antibody; also called AB399VH

Kd (Recombinant Human IL-13 [3]): 0.13 nM
koff (Recombinant Human IL-13 [3]): 0.00012 s⁻¹
kon (Recombinant Human IL-13 [3]): 920000 M⁻¹ s⁻¹
IL13 Neutralization Assay IC50 (TARC, A549 cells) (Recombinant Human IL-13 [1]): 0.033 nM
B5: AB397 (antibody, V domains shown)
VH: EVTLRESGPGLVKPTQTLTLTCTLYGFSLSTSDMGVDWIRQPPGKGLEWLAHIWWDDVKRYNPALKSRLTISKDTSKNQVVLKLTSVDPVDTATYYCARTVSSGYIYYAMDYWGQGTLVTVSS
VL: DIQMTQSPSSLSASVGDRVTISCRASQDIRNYLNWYQQKPGKAPKLLIFYTSKLHSGVPSRFSGSGSGTDYTLTISSLQPEDIATYYCQQGLTPPLTFGGGTKVEIKR
notes: parent antibody; also called AB397VH

N-Terminal VD IL13 Neutralization Assay IC50 (Recombinant Human IL-13 [1]): 0.126 nM
C-Terminal VD IL17 Neutralization Assay IC50 (Recombinant Human IL-17 [2]): 0.0213 nM
B6: DVD2162 (bispecific antibody)
VH: B3 VH
VL: B2 VL with D148N, P163S, T175I, G204A, T211S, S213T, Y216H, P220Q

Kd (Recombinant Human IL-13 [3]): 0.045 nM
koff (Recombinant Human IL-13 [3]): 2.8e-05 s⁻¹
kon (Recombinant Human IL-13 [3]): 630000 M⁻¹ s⁻¹
IL13 Neutralization Assay IC50 (TARC, A549 cells) (Recombinant Human IL-13 [1]): 0.082 nM
B7: AB398 (antibody, V domains shown)
VH: EVQLVQSGAEVKKPGASVKVSCKASGYTFTTYGVSWVRQAPGQGLEWMGEIYPGNYNTYYNEKFRGRVTMTTDTSTSTAYMELRSLRSDDTAVYYCARWRTSYFSDYGYFDYWGQGTTVTVSS
VL: DVVMTQSPLSLPVTLGQPASISCRSSQSLVHSHGNTYLHWYQQRPGQSPRLLIYTVSNRFSGVPDRFSGSGSGTDFTLKISRVEAEDVGVYYCSQSTHVPYTFGGGTKVEIKR
notes: parent antibody; also called AB398VH

C-Terminal VD IL13 Neutralization Assay IC50 (Recombinant Human IL-13 [1]): 0.195 nM
N-Terminal VD IL17 Neutralization Assay IC50 (Recombinant Human IL-17 [2]): 15.1 pM
B8: DVD2163 (bispecific antibody)
VH: EVQLVQSGAEVKKPGESVKISCKASGGSFRSYGISWVRQAPGQGLEWMGGITHFFGITDYAQKFQGRVTITADESTTTAYMELSGLTSDDTAVYYCAREPNDFWNGYYDTHDFDSWGQGTTVTVSSASTKGPEVTLRESGPGLVKPTQTLTLTCTLYGFSLSTSDMGVDWIRQPPGKGLEWLAHIWWDDVKRYNPALKSRLTISKDTSKNQVVLKLTSVDPVDTATYYCARTVSSGYIYYAMDYWGQGTLVTVSS
VL: EIVLTQSPDFQSVTPKEKVTITCRASQNIGSELHWYQQKPDQSPKLLIKYASHSISGVPSRFSGSGSGTDFTLTINGLEAEDAATYYCHQSDTLPHTFGQGTKVDIKRTVAAPSVFIFPPDIQMTQSPSSLSASVGDRVTISCRASQDIRNYLNWYQQKPGKAPKLLIFYTSKLHSGVPSRFSGSGSGTDYTLTISSLQPEDIATYYCQQGLTPPLTFGGGTKVEIKR

Kd (Recombinant Human IL-17 [4]): 7.4 pM
koff (Recombinant Human IL-17 [4]): 8.2e-06 s⁻¹
kon (Recombinant Human IL-17 [4]): 1.1e+06 M⁻¹ s⁻¹
IL17 Neutralization Assay IC50 (IL-6, HS27 cells) (Recombinant Human IL-17 [2]): 3 pM
B9: AB274 (antibody, V domains shown)
VH: EVQLVQSGAEVKKPGSSVKVSCKASGGSFGGYGIGWVRQAPGQGLEWMGGITPFFGFADYAQKFQGRVTITADESTTTAYMELSGLTSDDTAVYYCARDPNEFWNGYYSTHDFDSWGQGTTVTVSS
VL: EIVLTQSPDFQSVTPKEKVTITCRASQDIGSELHWYQQKPDQPPKLLIKYASHSTSGVPSRFSGSGSGTDFTLTINGLEAEDAGTYYCHQTDSLPYTFGPGTKVDIKR
notes: parent antibody; also called AB274VH

Kd (Recombinant Human IL-17 [4]): 34 pM
koff (Recombinant Human IL-17 [4]): 6.5e-05 s⁻¹
kon (Recombinant Human IL-17 [4]): 1.9e+06 M⁻¹ s⁻¹
IL17 Neutralization Assay IC50 (IL-6, HS27 cells) (Recombinant Human IL-17 [2]): 5.2 pM
B10: AB275 (antibody, V domains shown)
VH: EVQLVQSGAEVKKPGESVKISCKASGGSFRSYGISWVRQAPGQGLEWMGGITHFFGITDYAQKFQGRVTITADESTTTAYMELSGLTSDDTAVYYCAREPNDFWNGYYDTHDFDSWGQGTTVTVSS
VL: B9 VL with D28N, P43S, T55I, G84A, T91S, S93T, Y96H, P100Q
notes: parent antibody; also called AB275VH

C-Terminal VD IL13 Neutralization Assay IC50 (Recombinant Human IL-13 [1]): 0.309 nM
N-Terminal VD IL17 Neutralization Assay IC50 (Recombinant Human IL-17 [2]): 2.1 pM
B11: DVD2169 (bispecific antibody)
VH: EVQLVQSGAEVKKPGSSVKVSCKASGYTFTDYEIHWVRQAPGQGLEWMGVNDPESGGTFYNQKFDGRVTLTADESTSTAYMELSSLRSEDTAVYYCTRYSKWDSFDGMDYWGQGTTVTVSSASTKGPEVQLVQSGAEVKKPGASVKVSCKASGYTFTTYGVSWVRQAPGQGLEWMGEIYPGNYNTYYNEKFRGRVTMTTDTSTSTAYMELRSLRSDDTAVYYCARWRTSYFSDYGYFDYWGQGTTVTVSS
VL: DIQMTQSPSSLSASVGDRVTITCRASSGIISYIDWFQQKPGKAPKRLIYATFDLASGVPSRFSGSGSGTDYTLTISSLQPEDFATYYCRQVGSYPETFGQGTKLEIKRTVAAPSVFIFPPDVVMTQSPLSLPVTLGQPASISCRSSQSLVHSHGNTYLHWYQQRPGQSPRLLIYTVSNRFSGVPDRFSGSGSGTDFTLKISRVEAEDVGVYYCSQSTHVPYTFGGGTKVEIKR

Kd (Recombinant Human IL-17 [4]): < 0.5 pM
koff (Recombinant Human IL-17 [4]): < 1e-06 s⁻¹
kon (Recombinant Human IL-17 [4]): 2e+06 M⁻¹ s⁻¹
IL17 Neutralization Assay IC50 (IL-6, HS27 cells) (Recombinant Human IL-17 [2]): 19.8 pM
B12: AB273 (antibody, V domains shown)
VH: EVQLVQSGAEVKKPGSSVKVSCKASGYTFTDYEIHWVRQAPGQGLEWMGVNDPESGGTFYNQKFDGRVTLTADESTSTAYMELSSLRSEDTAVYYCTRYSKWDSFDGMDYWGQGTTVTVSS
VL: DIQMTQSPSSLSASVGDRVTITCRASSGIISYIDWFQQKPGKAPKRLIYATFDLASGVPSRFSGSGSGTDYTLTISSLQPEDFATYYCRQVGSYPETFGQGTKLEIKR
notes: parent antibody; also called AB273VH
